Laboratory results from publication PMC9663165, “Human immunomodulatory ligand B7-1 mediates synaptic remodeling via the p75 neurotrophin receptor” (The Journal of Clinical Investigation, 2022).
Numbering of substitutions follows the chain as printed. Numbers in names are those of the source.

Legend:
[1] = target: T1, B7-1–hIgG1 biotin (human, UniProt P33681 35-233, biotin on the AVI tag); assay: flow cytometry on protein-coated beads; p75NTR-mIgG2a or CTLA-4–mIgG2a titrated (0 to 100 nM, 30 min) onto streptavidin beads coated with B7-1–hIgG1 biotin; detected with anti-mIgG2a; PBS 0.2% BSA pH 7.4; Hill fit; dimeric fusion proteins; settings: both partners purified
T1 construct: human B7-1 (CD80) ectodomain, residues 35-233; also called recombinant biotinylated B7-1–Fc protein; B7-1–Fc biotin; source: Expi293 cells stably expressing BirA, transiently transfected, purified; not shown: Fc (human IgG1), C-terminal, kept; AVI tag, C-terminal, kept
T1 sequence (looked up): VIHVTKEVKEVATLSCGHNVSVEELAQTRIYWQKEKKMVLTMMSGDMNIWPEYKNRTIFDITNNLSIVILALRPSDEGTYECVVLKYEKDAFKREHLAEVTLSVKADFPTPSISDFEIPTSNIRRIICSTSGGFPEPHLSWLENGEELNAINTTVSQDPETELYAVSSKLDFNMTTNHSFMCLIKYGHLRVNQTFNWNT

[2] = target: T2, human p75 neurotrophin receptor-GFP (human, UniProt P08138 29-427); assay: flow cytometry on cells; recombinant B7-1-Fc or B7-1N82E-Fc titrated (up to 1.2 uM) onto cells expressing CTLA-4, CD28 or p75NTR; detected with an anti-mouse 647 labelled antibody; EC50 calculated; settings: one partner purified
T2 construct: also called p75NTR; NGFR; source: HEK293F, transiently transfected, on cells; not shown: GFP, C-terminal, kept
T2 sequence (looked up): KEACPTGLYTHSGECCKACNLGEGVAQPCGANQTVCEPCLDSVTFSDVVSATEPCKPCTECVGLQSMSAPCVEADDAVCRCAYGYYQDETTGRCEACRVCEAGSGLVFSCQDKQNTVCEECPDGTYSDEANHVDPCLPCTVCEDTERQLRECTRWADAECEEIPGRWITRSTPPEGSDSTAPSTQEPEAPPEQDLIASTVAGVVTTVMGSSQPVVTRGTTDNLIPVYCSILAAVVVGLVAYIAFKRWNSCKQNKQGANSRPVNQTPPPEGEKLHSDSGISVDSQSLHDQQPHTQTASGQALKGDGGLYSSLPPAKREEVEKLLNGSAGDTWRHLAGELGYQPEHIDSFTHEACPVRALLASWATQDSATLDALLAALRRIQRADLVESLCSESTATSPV

[3] = target: T3, CTLA-4 on cells (Figure S6) ( (human or mouse cDNA cloned), UniProt P16410 36-223); assay: as above; settings: one partner purified
T3 construct: CTLA-4; Probably a C-terminal GFP fusion in HEK293F cells as in the other experiments; also called CTLA-4 Expressing Cells; CTLA-4 cells
T3 sequence (P16410 36-223): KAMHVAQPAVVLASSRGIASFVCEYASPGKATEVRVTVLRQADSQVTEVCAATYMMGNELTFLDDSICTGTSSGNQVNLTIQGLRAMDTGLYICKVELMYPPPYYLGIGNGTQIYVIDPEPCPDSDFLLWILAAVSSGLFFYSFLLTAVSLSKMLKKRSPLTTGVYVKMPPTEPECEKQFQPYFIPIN

[4] = target: T4, CD28 on cells (Figure S6) ( (human or mouse cDNA cloned), UniProt P10747 19-220); assay: as above; settings: one partner purified
T4 construct: CD28; Probably a C-terminal GFP fusion in HEK293F cells as in the other experiments; also called CD28 Expressing Cells; CD28 cells

B1: p75^NTR-mIgG2A (Fc fusion, UniProt P08138 29-250, looked up)
chain: KEACPTGLYTHSGECCKACNLGEGVAQPCGANQTVCEPCLDSVTFSDVVSATEPCKPCTECVGLQSMSAPCVEADDAVCRCAYGYYQDETTGRCEACRVCEAGSGLVFSCQDKQNTVCEECPDGTYSDEANHVDPCLPCTVCEDTERQLRECTRWADAECEEIPGRWITRSTPPEGSDSTAPSTQEPEAPPEQDLIASTVAGVVTTVMGSSQPVVTRGTTDN
notes: p75NTR (NGFR) full-length ectodomain; also called p75^NTR-Fc; source: Expi293 suspension cells, transiently transfected, purified; not shown: Fc (mouse IgG2a), C-terminal, kept
[1]
  EC50: 16 nM

B2: hB7-1-mIgG2A (Fc fusion, human, UniProt P33681 35-233, looked up)
chain: T1 sequence (looked up)
notes: B7-1 (CD80), human, ectodomain residues 35-233; also called B7-1-Fc; WT B7-1-Fc; source: Expi293, transiently expressed, purified (Ni2+ His60 resin, S200 gel filtration); not shown: Fc (mouse IgG2a), C-terminal, kept
[2]
  EC50: 285 nM
[3]
  EC50: 0.69 nM
[4]
  EC50: 9.7 nM

B3: hB7-1N82E-mIgG2A (Fc fusion, human, UniProt P33681 35-233, looked up)
chain: T1 sequence (looked up) with N48E
notes: B7-1 (CD80), human, ectodomain residues 35-233 with N82E; also called B7-1N82E-Fc; source: Expi293, transiently expressed, purified (Ni2+ His60 resin, S200 gel filtration); not shown: Fc (mouse IgG2a), C-terminal, kept
[3]
  EC50: 9.2 nM
[4]
  EC50: 10.3 nM
